Molecular target: the molecule itself
Assay: crystal structure; pre-TS cleavage Mos1 paired-end complex: T216A/D249A transposase mixed equimolar with ds IR DNA substrate; hanging-drop vapour diffusion, 100 mM ammonium acetate, 20 mM MgCl2, 50 mM HEPES pH 7.0, 5% PEG 8000; 3.09 Å, C222(1)

B1: T216A/D249A Mos1 transposase double mutant (enzyme)
chain: MSSFVPNKEQTRTVLIFCFHLKKTAAESHRMLVEAFGEQVPTVKKCERWFQRFKSGDFDVDDKEHGKPPKRYEDAELQALLDEDDAQTQKQLAEQLEVSQQAVSNRLREMGKIQKVGRWVPHELNERQMERRKNTCEILLSRYKRKSFLHRIVTGDEKWIFFVSPKRKKSYVDPGQPATSTARPNRFGKKTMLCVWWDQSGVIYYELLKRGETVNAARYQQQLINLNRALQRKRPEYQKRQHRVIFLHANAPSHTARAVRDTLETLNWEVLPHAAYSPDLAPSDYHLFASMGHALAEQRFDSYESVKKWLDEWFAAKDDEFYWRGIHKLPERWEKCVASDGKY
notes: mariner Mos1 transposase, from the codon-optimized Mos1 gene; T216A allows soluble expression in E. coli, D249A is the active site mutation; Crystallised as a paired-end complex (PEC): a transposase dimer with two DNA substrates (33 nt transferred strand, 25 nt non-transferred strand); PDB 3HOS is the post-cleavage PEC of the parent transposase, without D249A; also called T216A/D249A mutant …
stoichiometry N: 2

Source: paper PMC4344528, “Structural role of the flanking DNA in mariner transposon excision” (Nucleic Acids Research, 2015)
